Source: US8586570B2, “Sox-based kinase sensor” (Massachusetts Institute of Technology, priority 2006, dated 2013)

Key:
Assay in all cases: Cross-reactivity of PKCα-S10 with PKC isozymes
Format in all cases: biochemical
Conditions in all cases: peptide 1 μM, isozyme 2 ng
PKCη = PKCη (Homo sapiens, UniProt P24723)
Protocol: (§1) With the kinetic parameters at hand it is possible to test the cross-reactivity of PKCα-S10 with PKC isozymes. In 12 separate reactions PKCα-S10 (1 μM) is subjected to phosphorylation with PKCα, PKCβI, PKCβII, PKCγ, PKCδ, PKCε, PKCζ, PKCη, PKCθ, PKCι, PKCμ and PKCν (2 ng).

PKCβII = PKCβII (Homo sapiens, UniProt P05771)
Protocol: as §1

PKCζ = target: T1, PKCζ (Homo sapiens, UniProt Q05513)
T1 sequence (Q05513 1-592): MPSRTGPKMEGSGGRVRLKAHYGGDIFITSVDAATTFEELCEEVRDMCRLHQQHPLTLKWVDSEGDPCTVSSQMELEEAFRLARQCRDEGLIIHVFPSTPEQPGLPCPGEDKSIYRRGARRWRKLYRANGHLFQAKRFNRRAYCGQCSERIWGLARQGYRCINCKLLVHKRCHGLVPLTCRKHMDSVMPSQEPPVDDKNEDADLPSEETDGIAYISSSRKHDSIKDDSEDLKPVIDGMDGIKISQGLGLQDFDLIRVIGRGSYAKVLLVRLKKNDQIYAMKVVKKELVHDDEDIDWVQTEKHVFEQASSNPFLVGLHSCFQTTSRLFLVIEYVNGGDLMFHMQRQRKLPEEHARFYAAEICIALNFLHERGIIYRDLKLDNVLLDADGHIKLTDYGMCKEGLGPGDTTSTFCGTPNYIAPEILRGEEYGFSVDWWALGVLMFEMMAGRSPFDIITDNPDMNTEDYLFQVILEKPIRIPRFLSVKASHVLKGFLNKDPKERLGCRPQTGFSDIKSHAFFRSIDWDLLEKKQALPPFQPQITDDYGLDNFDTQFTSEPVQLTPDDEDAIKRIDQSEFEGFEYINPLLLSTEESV
Protocol: as §1

Chain of PKCβII (P05771 1-673 isoform P05771-2): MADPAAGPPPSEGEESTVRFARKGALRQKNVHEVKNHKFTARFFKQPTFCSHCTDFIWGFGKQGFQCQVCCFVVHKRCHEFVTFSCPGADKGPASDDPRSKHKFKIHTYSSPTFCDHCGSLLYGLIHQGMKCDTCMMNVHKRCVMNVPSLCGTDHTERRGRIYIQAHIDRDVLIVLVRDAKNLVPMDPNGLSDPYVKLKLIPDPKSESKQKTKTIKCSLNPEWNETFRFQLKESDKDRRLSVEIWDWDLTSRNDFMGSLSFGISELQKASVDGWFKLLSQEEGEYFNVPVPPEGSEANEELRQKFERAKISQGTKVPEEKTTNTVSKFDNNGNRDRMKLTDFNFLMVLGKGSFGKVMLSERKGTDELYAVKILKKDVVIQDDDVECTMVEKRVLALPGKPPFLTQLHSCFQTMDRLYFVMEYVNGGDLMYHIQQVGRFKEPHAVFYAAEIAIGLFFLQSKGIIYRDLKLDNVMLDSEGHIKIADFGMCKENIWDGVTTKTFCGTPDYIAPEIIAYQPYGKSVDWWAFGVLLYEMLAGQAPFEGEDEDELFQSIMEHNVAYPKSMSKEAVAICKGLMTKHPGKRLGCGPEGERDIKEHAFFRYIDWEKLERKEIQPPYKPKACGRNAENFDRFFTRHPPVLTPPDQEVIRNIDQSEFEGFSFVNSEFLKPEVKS
Chain of PKCη (P24723 whole entry): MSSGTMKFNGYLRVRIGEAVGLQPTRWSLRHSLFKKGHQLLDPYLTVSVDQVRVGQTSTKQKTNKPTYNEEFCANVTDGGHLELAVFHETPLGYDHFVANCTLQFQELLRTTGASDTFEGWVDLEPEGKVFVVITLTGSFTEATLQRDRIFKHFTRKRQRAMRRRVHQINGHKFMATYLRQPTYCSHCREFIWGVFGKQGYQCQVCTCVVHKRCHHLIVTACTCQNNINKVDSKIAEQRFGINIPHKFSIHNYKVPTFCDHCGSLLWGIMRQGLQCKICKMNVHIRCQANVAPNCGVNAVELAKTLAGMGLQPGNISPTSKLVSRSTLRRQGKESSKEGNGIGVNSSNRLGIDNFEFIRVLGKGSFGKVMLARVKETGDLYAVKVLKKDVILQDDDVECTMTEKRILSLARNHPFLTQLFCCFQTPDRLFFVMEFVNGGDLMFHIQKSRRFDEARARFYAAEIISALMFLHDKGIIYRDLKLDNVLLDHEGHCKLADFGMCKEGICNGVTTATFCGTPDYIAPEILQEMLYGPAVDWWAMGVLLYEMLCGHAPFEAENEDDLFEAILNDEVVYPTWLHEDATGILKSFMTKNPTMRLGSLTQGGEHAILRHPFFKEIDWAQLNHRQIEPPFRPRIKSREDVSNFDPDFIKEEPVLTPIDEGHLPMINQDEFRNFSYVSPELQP

Substance: Ac-RRR-C(Sox)-ASFRRKA-CONH2 [PKCα-S10(P10), Sox chemosensor with extended recognition domain for PKCα]
- activity of isozyme on peptide (PKCη): very little activity
- activity of isozyme on peptide compared with PKCα (PKCβII): comparable activities to that of PKCα
- activity of isozyme on peptide (PKCζ): very little activity
